Paper PMC4465127 (Nature Communications, 2015)

What was measured:
[1] = molecular target: the molecule itself; assay: SAXS; home source, I(0)/c, without ligand; 4 °C, pH 8.0, 1.2 to 5 mg/ml protein
[2] = molecular target: the molecule itself; assay: AUC; sedimentation equilibrium with 50-70 μM LIN-3^EGF added; 1 to 8 μM receptor, 10 mM Hepes pH 8.0, 150 mM NaCl, 20 °C, three speeds; dimer to monomers
[3] = molecular target: the molecule itself; assay: AUC; sedimentation equilibrium, without ligand; 1 to 8 μM receptor, 10 mM Hepes pH 8.0, 150 mM NaCl, 20 °C, three speeds; dimer to monomers
[4] = molecular target: the molecule itself; assay: SEC; unliganded sLET-23 during initial purification; Superose 6 10/300 GL, 10 mM Hepes pH 8.0, 150 mM NaCl

Row | Protein | stoichiometry N [1] | Kd [2] [µM] | Kd [3] [µM] | stoichiometry N [4]
1 | sLET-23ΔV (LET-23 extracellular region with domain V deleted) (domain or fragment, C. elegans, UniProt P24348 21-645, looked up, signal peptide in the construct; LET-23 of C. elegans, extracellular domains I-IV (domain V deleted); Dimer by SEC-MALS, SE-AUC and SAXS; source: Sf9 cells (baculovirus), purified from conditioned medium (Ni-NTA, cation exchange, Superose 6)) FGNSNAQLWKRCVSPQDCLCSGTTNGISRYGTGNILEDLETMYRGCRRVYGNLEITWIEANEIKKWRESTNSTVDPKNEDSPLKSINFFDNLEEIRGSLIIYRANIQKISFPRLRVIYGDEVFHDNALYIHKNDKVHEVVMRELRVIRNGSVTIQDNPKMCYIGDKIDWKELLYDPDVQKVETTNSHQHCYQNGKSMAKCHESCNDKCWGSGDNDCQRVYRSVCPKSCSQCFYSNSTSSYECCDSACLGGCTGHGPKNCIACSKYELDGICIETCPSRKIFNHKTGRLVFNPDGRYQNGNHCVKECPPELLIENDVCVRHCSDGHHYDATKDVRECEKCRSSSCPKICTVDGHLTNETLKNLEGCEQIDGHLIIEHAFTYEQLKVLETVKIVSEYITIVQQNFYDLKFLKNLQIIEGRKLHNVRWALAIYQCDDLEELSLNSLKLIKTGAVLIMKNHRLCYVSKIDWSSIITSKGKDNKPSLAIAENRDSKLCETEQRVCDKNCNKRGCWGKEPEDCLECKTWKSVGTCVEKCDTKGFLRNQTSMKCERCSPECETCNGLGELDCLTCRHKTLYNSDFGNRMECVHDCPVSHFPTQKNVCEKCHPTCYDNGCTGPDSNLGYGGCK | 2 |  |  | 
2 | sLET-23ΔIV/V (LET-23 extracellular region with domains IV and V deleted) (domain or fragment, C. elegans, UniProt P24348 21-539, looked up, signal peptide in the construct; LET-23 of C. elegans, extracellular domains I-III (domains IV and V deleted); source: Sf9 cells (baculovirus), purified from conditioned medium (Ni-NTA, cation exchange, Superose 6)) FGNSNAQLWKRCVSPQDCLCSGTTNGISRYGTGNILEDLETMYRGCRRVYGNLEITWIEANEIKKWRESTNSTVDPKNEDSPLKSINFFDNLEEIRGSLIIYRANIQKISFPRLRVIYGDEVFHDNALYIHKNDKVHEVVMRELRVIRNGSVTIQDNPKMCYIGDKIDWKELLYDPDVQKVETTNSHQHCYQNGKSMAKCHESCNDKCWGSGDNDCQRVYRSVCPKSCSQCFYSNSTSSYECCDSACLGGCTGHGPKNCIACSKYELDGICIETCPSRKIFNHKTGRLVFNPDGRYQNGNHCVKECPPELLIENDVCVRHCSDGHHYDATKDVRECEKCRSSSCPKICTVDGHLTNETLKNLEGCEQIDGHLIIEHAFTYEQLKVLETVKIVSEYITIVQQNFYDLKFLKNLQIIEGRKLHNVRWALAIYQCDDLEELSLNSLKLIKTGAVLIMKNHRLCYVSKIDWSSIITSKGKDNKPSLAIAENRDSKLCETEQRVCDKNCNKRGCWGKEPEDCLE |  | 5 | 30 | 
3 | LET-23 extracellular region (sLET-23) (domain or fragment, C. elegans, UniProt P24348 21-819, looked up, signal peptide in the construct; LET-23, the C. elegans EGFR orthologue, extracellular region with domains I-V; Glycosylated (six predicted N-glycosylation sites); Constitutive dimer by SEC and SE-AUC; also called isolated LET-23 extracellular region; C. elegans EGFR extracellular region; source: Sf9 cells (baculovirus), purified from conditioned medium (Ni-NTA, cation exchange, Superose 6)) FGNSNAQLWKRCVSPQDCLCSGTTNGISRYGTGNILEDLETMYRGCRRVYGNLEITWIEANEIKKWRESTNSTVDPKNEDSPLKSINFFDNLEEIRGSLIIYRANIQKISFPRLRVIYGDEVFHDNALYIHKNDKVHEVVMRELRVIRNGSVTIQDNPKMCYIGDKIDWKELLYDPDVQKVETTNSHQHCYQNGKSMAKCHESCNDKCWGSGDNDCQRVYRSVCPKSCSQCFYSNSTSSYECCDSACLGGCTGHGPKNCIACSKYELDGICIETCPSRKIFNHKTGRLVFNPDGRYQNGNHCVKECPPELLIENDVCVRHCSDGHHYDATKDVRECEKCRSSSCPKICTVDGHLTNETLKNLEGCEQIDGHLIIEHAFTYEQLKVLETVKIVSEYITIVQQNFYDLKFLKNLQIIEGRKLHNVRWALAIYQCDDLEELSLNSLKLIKTGAVLIMKNHRLCYVSKIDWSSIITSKGKDNKPSLAIAENRDSKLCETEQRVCDKNCNKRGCWGKEPEDCLECKTWKSVGTCVEKCDTKGFLRNQTSMKCERCSPECETCNGLGELDCLTCRHKTLYNSDFGNRMECVHDCPVSHFPTQKNVCEKCHPTCYDNGCTGPDSNLGYGGCKQCKYAVKYENDTIFCLQSSGMNNVCVENDLPNYYISTYDTEGVIETHCEKCSISCKTCSSAGRNVVQNKCVCKHVEYQPNPSERICMDQCPVNSFMVPDTNNTVCKKCHHECDQNYHCANGQSTGCQKCKNFTVFKGDIAQCVSECPKNLPFSNPANGECLDYDIASRQRKTRM |  |  | < 1 | 2
